{"source": "patent US20250388664A1", "about": "(BIOARCTIC, published 2025)", "key": {"[1]": {"molecular_target": "T1, truncated hTfR1 of SEQ ID NO:122 (human, UniProt P02786 122-760)", "T1 construct": "also called human TfR1; Human TfR1", "experiment": "SPR, TfR1 amine-coupled, Fab injected, 1:1 fit", "procedure,_shortened": "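Biacore 8K at 25 °C in HBS-EP+, single cycle kinetics with Fab as analyte in four 2-fold steps from 100 nM; 120 s contact at 30 μl/min, 1000 s dissociation, 3M MgCl₂ regeneration. Kinetics fitted to a 1:1 interaction model.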"}, "[2]": {"molecular_target": "T2, truncated cTfR1 of SEQ ID NO:123 (cynomolgus monkey, UniProt Q5RDH6 122-760 (Pongo abelii entry))", "T2 construct": "also called cynomolgus TfR1", "T2 chain": "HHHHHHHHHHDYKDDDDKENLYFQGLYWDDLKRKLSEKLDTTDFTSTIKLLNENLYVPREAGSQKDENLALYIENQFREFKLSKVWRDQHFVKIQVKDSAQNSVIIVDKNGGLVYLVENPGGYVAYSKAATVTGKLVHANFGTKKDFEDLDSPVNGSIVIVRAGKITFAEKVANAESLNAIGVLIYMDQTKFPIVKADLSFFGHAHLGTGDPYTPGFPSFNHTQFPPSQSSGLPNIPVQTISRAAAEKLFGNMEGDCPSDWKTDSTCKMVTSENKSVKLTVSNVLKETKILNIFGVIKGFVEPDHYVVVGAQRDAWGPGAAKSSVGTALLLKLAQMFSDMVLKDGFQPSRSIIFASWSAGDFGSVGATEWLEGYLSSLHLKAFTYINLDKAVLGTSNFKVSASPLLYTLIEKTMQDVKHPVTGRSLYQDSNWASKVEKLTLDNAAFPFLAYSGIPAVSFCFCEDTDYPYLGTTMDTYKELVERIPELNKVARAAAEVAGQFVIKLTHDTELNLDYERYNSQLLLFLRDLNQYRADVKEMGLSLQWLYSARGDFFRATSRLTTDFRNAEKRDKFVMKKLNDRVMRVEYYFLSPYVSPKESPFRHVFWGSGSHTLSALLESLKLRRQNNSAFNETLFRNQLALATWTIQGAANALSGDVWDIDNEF", "experiment": "SPR (Biacore 8K), single cycle kinetics: cTfR1 amine-coupled on a CM5 chip, Fab injected in a 2-fold series of four steps from 100 nM", "description": "Binding of the purified Fabs to human and cynomolgus TfR1 was evaluated using either SPR (FIG. 44) or indirect ELISA (FIG. 45). For SPR, a Biacore 8K instrument (Cytiva) was used. […] The Fabs were injected over the chip using a 2-fold dilution series in four steps starting at 100 nM. The interaction was measured using the single cycle kinetics method with a contact time of 120 s at a flow rate of 30 μl/min followed by a dissociation time of 1000 s. Regeneration of the surface between cycles was done by injecting 3M MgCl₂. The binding data was fitted to a 1:1 interaction model. The Fabs were diluted in HBS-EP+ (Cytiva, #BR100669). Experiments were performed at 25° C."}, "[3]": {"molecular_target": "T3, hTfR1 (recombinant, construct not specified) (human, UniProt P02786 89-760, limits assumed)", "T3 construct": "also called biotinylated hTfR1", "experiment": "BLI: hTfR1 captured on biotinylated human holo-transferrin on streptavidin sensors, 15 nM Fab in solution, 120 s association, 300 s dissociation", "description": "A more detailed binding analysis by BLI was performed on purified, selected antibodies. […] For example, the BLI instrument Octet Red384 was used to measure binding between immobilized TfR1 and the tested Fab fragments in solution. […] Antibody binding to TfR1 was measured during an association phase of 120 s and a dissociation phase of 300 s."}, "AβpE3-40 monomer [4]": {"molecular_target": "T4, AβpE3-40 monomer (UniProt P05067 674-711, pyroglutamate at position 3 (N-terminal residue))", "T4 sequence (P05067 674-711)": "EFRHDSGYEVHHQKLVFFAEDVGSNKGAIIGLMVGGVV", "experiment": "cell-based or functional assay"}, "AβpE3-40 monomer [5]": {"molecular_target": "T4, AβpE3-40 monomer", "experiment": "SPR, antibody immobilised, monomer injected, 1:1 fit", "description": "Single cycle kinetics with the binding molecules immobilized on a CM5 chip was used to measure binding to the AβpE3-40 monomer. For the measurements, 5 μg/ml of analyte binding molecule was immobilized on the chip. […] Regeneration of the surface between cycles was done by injecting 30 μl 3 M MgCl₂ (Cytiva, cat. No. 29234600). The binding data was fitted to a 1:1 interaction model."}, "AβpE3-40 monomer [6]": {"molecular_target": "T4, AβpE3-40 monomer", "experiment": "inhibition ELISA, antigen titrated in solution, AβpE3-40 coat", "description": "(§1) The tested molecules were incubated at a fixed concentration (0.1 μg/ml) with titrating concentrations of the different AβpE3 antigens. After incubation for 45 min at 900 rpm to reach equilibrium, the samples were added to a blocked and washed ELISA plate with an AβpE3-40 coat (0.5 μM). The samples were incubated on the plate for 25 min without shaking followed by washing, incubation with detection antibody, another washing step and finally incubation with alkaline phosphatase substrate."}, "AβpE3-42 protofibrils": {"molecular_target": "T5, AβpE3-42 protofibrils (UniProt P05067 674-713, pyroglutamate at position 3 (N-terminal residue))", "T5 construct": "range 3-42 (Aβ numbering); Soluble aggregates made from AβpE3-42 peptide, purified in the void peak of SEC; also called AβpE3-42 PF", "T5 sequence (P05067 674-713)": "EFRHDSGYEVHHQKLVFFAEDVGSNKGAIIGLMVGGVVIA", "experiment": "inhibition ELISA, antigen titrated in solution, AβpE3-40 coat", "description": "as §1"}, "hTfR1 on cell surfaces": {"molecular_target": "T6, hTfR1 on cell surfaces (human, UniProt P02786 1-760)", "T6 construct": "Endogenous receptor on human cell lines; also called endogenous hTfR1 on hCMEC/D3, THP-1 and K562 cells; CD71", "experiment": "flow cytometry on Fc-blocked K562 cells, 1 h at 4°C, detection with PE anti-human IgG Fc"}, "[7]": {"molecular_target": "T1, truncated hTfR1 of SEQ ID NO:122", "experiment": "SPR, TfR1 amine-coupled, Fab injected, 1:1 fit", "description": "(§2) The interaction was measured using the single cycle kinetics method with a contact time of 120 s at a flow rate of […] followed by a dissociation time of 600 s. Regeneration of the surface between cycles was done by injecting 3M MgCl₂. The binding data were fitted to a 1:1 interaction model. The Fabs were diluted in HBS-EP+ (Cytiva, #BR100669). Experiments were performed at 25° C.", "remark": "listed apart in the source"}, "[8]": {"molecular_target": "T2, truncated cTfR1 of SEQ ID NO:123", "experiment": "SPR, TfR1 amine-coupled, Fab injected, 1:1 fit", "description": "as §2"}, "[9]": {"molecular_target": "T3, hTfR1 (recombinant, construct not …)", "experiment": "indirect ELISA on an hTfR1 coat, detection with anti-mouse IgG F(ab')2, normalised A450 against log antibody concentration in pM"}}, "note": "Where two headings read alike, the source gives them in different places.", "data": [{"binder": "h26D3 variant LC5 Fab (Fab, V domains shown, Single-mutant His-tagged Fab; also called Y97A) VH: EVQLVQSGAEVKKPGSSVKVSCKASGYIFTDYNMDWVRQAPGQGLEWIGDINPDYDTTSYNEKFKGRATLTVDKSTSTAYMELSSLRSEDTAVYYCARGGYSGSSYYHPMDYWGQGTLVTVSS VL: DIQMTQSPSSVSASVGDRVTITCKSSQSLLYSTNQKNYLAWYQQKPGKAPKLLIYWASTRESGVPSRFSGSGSGTDFTLTISSLQPEDFATYYCQQAFIYPRTFGQGTKVEIK", "values": [{"measurement": "Kd", "setting": "[1]", "result": 240, "unit": "nM"}, {"measurement": "binding result", "setting": "[2]", "result": "binds"}]}, {"binder": "37D10-Fab (Fab, V domains shown, Fab of murine 37D10) VH: QVQLQQSGAELVRPGTSVKISCKASGYAFTNYWLGWVKQRPGHGLEWIGDIFPGSDNTYYNEKFKGKATLTADKSSSTAYMQLSSLASEDSAVYFCARSGNFYAMDYWGQGTSVTVSS VL: ENVLTQSPAIMSASPGEKVTMTCSASSSVNYMNWYQQKSSTFPKLWIYDTSKLASGVPGRFSGSGSGKFYSLTISSMEAEDVATYYCFQGSGYPFTFGSGTKLEIK", "values": [{"measurement": "binding result", "setting": "[3]", "result": "binds"}]}, {"binder": "BA003 (antibody, human IgG1, kappa, also called comparator antibody BA003; control antibody BA003) light: EIVLTQSPLSLSVTLGQSASISCRSSQSLLDSNGKTYLHWFILRPGQSPRRLIYLVSILDSGVPDRFSGSGSGTDFTLKISRVEAEDVGVYYCVQGTHFPFTFGSGTKLEIKRTVAAPSVFIFPPSDEQLKSGTASVVCLLNNFYPREAKVQWKVDNALQSGNSQESVTEQDSKDSTYSLSSTLTLSKADYEKHKVYACEVTHQGLSSPVTKSFNRGEC heavy: not shown", "values": [{"measurement": "Uptake of AβpE3-40 monomers in THP-1 cells, EC50", "setting": "AβpE3-40 monomer [4]", "result": 2.2, "unit": "nM"}, {"measurement": "Kd", "setting": "AβpE3-40 monomer [5]", "result": 2.33, "unit": "nM"}, {"measurement": "koff", "setting": "AβpE3-40 monomer [5]", "result": 0.000127, "unit": "s⁻¹"}, {"measurement": "kon", "setting": "AβpE3-40 monomer [5]", "result": 54600, "unit": "M⁻¹ s⁻¹"}, {"measurement": "IC50", "setting": "AβpE3-40 monomer [6]", "result": 1.1, "unit": "nM"}, {"measurement": "IC50", "setting": "AβpE3-42 protofibrils", "result": 2.2, "unit": "nM"}, {"measurement": "binding result", "setting": "hTfR1 on cell surfaces", "result": "no binding (tested: 10000 nM)"}]}, {"binder": "26D3-Fab (Fab, V domains shown, Fab of murine 26D3; also called murine 26D3 Fab) VH: EVQLQQFGVELVKPGASVKISCKASGYIFTDYNMDWVKQSHGKSLEWIGDINPDYDTTSYNEKFKGKATLTVDKSSSTAYMELRSLTSEDTAVYYCARGGYSGSSYYHPMDYWGQGTSVTVSS VL: DIVMSQSPSSLAVSVGEKITMSCKSSQSLLYSTNQKNYLAWYQQKPGQSPELLIYWASTRESGVPDRFTGSGSGTDFTLTISNVRAEDLAVYYCQQYFIYPRTFGGGTKLEIK", "values": [{"measurement": "Kd", "setting": "[7]", "result": 3.6, "unit": "nM"}, {"measurement": "Kd", "setting": "[8]", "result": 10, "unit": "nM"}, {"measurement": "EC50 (read off the curve)", "setting": "[9]", "result": "~0.06", "unit": "nM"}]}]}
